# Assay: yeast display, Sf9 membrane polyspecificity reagent, FACS + sequencing; frameworks hold sequencing errors
# Summary of the method: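 Using colony PCR, genes from sorted yeast display clones were amplified, then sequenced on MiSeq at 2 × 250 and filtered by CDR length. The clones had been stained with 10% biotinylated, detergent-solubilized Sf9 membrane reagent for 1 hour at 4 °C and sorted by FACS into low and high (top ~1%) gates on anti-HA and streptavidin fluorescence. Polyreactivity labels come from the gate of origin.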
row,Sequence,polyreactivity (PSR sort gate)
1,QVQLVESGGGLVQEGGSLRLSCAASGRTFAYNVKGRYRQAPGKVRELVAGISFGAGSTYYADSVKGRFTISRDNAKNTVYLHMNSLKPEDTAVYYCATRRRGTRYPRGYDYWGQGTQVTVSS,high polyreactivity
2,QVQLVESGGGLVQEGGSLRLSCAASGRTFDSYTMGWYRPAPGKQRELVADITFTGGSTYYADTVKGRFTISRDNAKYIVFLQMNSLKPEDTAVYYCNADREYKWYFRYDYWGQGTQVNVSS,low polyreactivity
3,QVQLVESGGGLVQEGGSLRLSCAASGRTFSYNAMGWYSQAPGKERELFAAITGRGGSTYYADSVKGRFTISRDNAKKTVYLQMNRLKPEVTAVYYCNAVDAGYHRDRDYWGLGTQVTVSS,low polyreactivity
4,QVQLVESGGGLVQEGGSLRLSCAASGRTFYRNAMGWYRQAPGKERELVAAISSDDSTNYADSVKGRFTISRDNAKNTVYLQMNSLKPEDTAVYYCNADYYYGYEYDYWGQGSQVTVSS,low polyreactivity
5,QVQLVESGGGLVQEGGSLRLSCAASGRTFYTNAMGWYRPAPGKERELVAVISRGGTTFYADSVKGRFTISRDNAKNTVYLQMNSLKPEDTAVYYCAKQRPSGDSSSQMGSWGQGTQVTVSS,low polyreactivity
6,QVQLVESGGGLVQEGGSLRLSCAASGRTSGFNTMGWYRQAPRKERELVAAISFSGGSTYYADSVKGRFTISRDNAKNTVYLQMNSLNPEDTAVYYCNALYRYLYRSGDYWGHGTQVTVSS,low polyreactivity
7,QVQLVESGGGLVQEGGSLRLSCAASGSHFTRYVMGWYRPAPGKERELVAAITTGGSTYYADSVKGRFTISLDNAKNTVYLQMNSLKPEDTAVYYCAADRRTVSYKYNYWGQGTQVTVSS,high polyreactivity
8,QVQLVESGGGLVQEGGSLRLSCAASGSIFGVYTMGWYRPEPGKERELVAAINWGGTSTYYADSVKGRFTISRDNAKNTVYLQMNSLKPEDTAVYYCNAERRRRYPYNYWGHGTQVTVSS,high polyreactivity
9,QVQLVESGGGLVQEGGSLRLSCAASGSIFKQYAMGWYRQAPGKERELVAAISYSGGTTYYADSVKGRFTISRDNAKNTVYLQMNSMKPEDTAVYYCAAEWWILSYRFDYWGQGTQVTVSS,high polyreactivity
10,QVQLVESGGGLVQEGGSLRLSCAASGSIFNTYAMGRYRQAPGKEREMVAGITKTGSRTYYADSVKGRFTISRDNAKNTVYLQIHILKPEDTAVYYCNARIWPRSYRYDYWGQGTQVTVSS,high polyreactivity
11,QVQLVESGGGLVQEGGSLRLSCAASGSIFSTYVMGWYRQAPGKERELVAAISRRGGSTYYADSVKGRFTISRDNAKNTVYLQMNSLKPEDTAVYYCAADGTVGRRDYWGQGTQVTVSS,high polyreactivity
12,QVQLVESGGGLVQEGGSLRLSCAASGSIFWPNAMGWYRQAPGKERELVAAISWGTGSTYYADSVKGRFTISRDNAKNTVYLQINSLKPEDSAVYYCNAEYVVAFGYQYGEYDYWGQGTQVTVSS,low polyreactivity
13,QVQLVESGGGLVQEGGSLRLSCAASGSLFDVYAMGWYRQAPGKERELVAAISSSGSTYYADSVKGRFTISRDNAKNTVYLQMNSLKPEDTAVYYCAADQADDDDYYYWGQGTQVTVSS,low polyreactivity
14,QVQLVESGGGLVQEGGSLRLSCAASGSTFRRNAMGWYRQAPGKERELVAAISTSGGTTYYADSVKGRFTISRDYAKNTVYLQMNSLKPEDTAVYYCAAGGKKRDDYWGQGTQVTVSS,high polyreactivity
15,QVQLVESGGGLVQEGGSLRLSCAASGSTFSFYAMGWYRQAPGKERELVAAIDSGGRTKYADSVKGRFTISRDNAKNTVYLQMNSLKPEDSEVYYCGAVFRGWWLYDYWGKGTQVTVSS,low polyreactivity
16,QVQLVESGGGLVQEGGSLRLSCAASGSTFVHYDMGWYRQAPGKERELVAGITDTDNHELRRLCEGRFTISRDKAKNTVYLQMNSLKPEDTAVYYCNADDTYYPLGGITGYDYWGQGTQVTVSS,low polyreactivity
17,QVQLVESGGGLVQEGGSLRLSCAASGYIFKYYAMGWYRQAPGKERELVAAIRYSGGITYYADSVKGRFTISRDNAKNTVYLQMQSLKPEDTAVSYCAADYIITYRSGRREYVYWGQGTQVTVSS,high polyreactivity
18,QVQLVESGGGLVQEGGSLRLSCAASGYIFYEYAMGWYRQAPGKERELVAAISYSGGSTYYADSVKGRFTISRDNAKNTVYLQMNSLKPEDTAVYYCAAVGSVRYREGYDYWGQGSQVTVSS,high polyreactivity
19,QVQLVESGGGLVQEGGSLRLSCAATGLTFVYYEMGWYRQAPGKERELVADITYIGTSTYYADSVKGRFTISLDNAKNTVYLQMNSLKPEDTEVYYCAAPFPIRSGESWRTDLGYDYWGQGTQVTVSS,low polyreactivity
20,QVQLVESGGGLVQEGGSLRLSCADSGFTSCDNDMGWYRQAPGKERELVAAISRGGSTNYADSVKGRFTISRDNAKNTFYLQMNSLKPEDSEVYYCATAAVTPVWYDYWGKGTQVTVSS,low polyreactivity
21,QVQLVESGGGLVQEGGSLRLSCASSGYTFPYYAMGWYRQAPGKERELVAAIRSGGGTNYADSVKGRFTISRDNAKNTVYLQMNSLKPEDTADYYCAKEWAGGLYDYWGQGTQVTVSS,low polyreactivity
22,QVQLVESGGGLVQEGGSLRLSCGASGSIFSCYAMGWYRQAPGKERELVAGITWSGGSTYYADSVKGRFTNSRDNAKNTVYLQMNSLKPEDTSVYYCAAKYYWYYSDSGIPLFDYWGQGTQVTVSS,low polyreactivity

row,Sequence,polyreactivity (PSR sort gate)
1,QVQLVESGGGLVQEGGSLRLSCSASGRIFGSYAMGWNRPATGKERELVAAINSSGGRTYYADSVKGRFTISRDNAKNTVYLQMNSLKPDVTAVYYCNARRVYSQRYDYWGQGTQVTVSS,high polyreactivity
2,QVQLVESGGGLVQEGGSLRLSSAASGRTFGTNPMGWYRQAPGKERELVAAISTRDGSTYYADSVKGRFSISRDNAKNTVYLQMNSLKPEDTAVYYCNAVVRYYDWGYLDYDYWGQGTQVTVSS,low polyreactivity
3,QVQLVESGGGLVQEGGSLRLTCAASGRIFQRYAMGWYSPPPGKERELVAVITKRGGNTYYADSVKGRFTLSRDNAKNTVYLQMNSLKPEDTAVYYCATRSGRSTGDYWGQGTQVTVSS,high polyreactivity
4,QVQLVESGGGLVQEGGSLRLTCAASGRIFVYNAMGWYRQAPRKDRELVAAISWRGDGTYYADSVKGLFTISRDNAKITVYLQMNSLKPEDTAVYYCAADYVYYYHEYDYWGQGTQVTVSS,low polyreactivity
5,QVQLVESGGGLVQEGGSLRVSCAASGSTLIRNVMVRYRQAPGKERELVAVITYGVGSTYYADSVKGRFTISRDNAKNTVYLQMNSLKPEDTAVYYCNKDPLVFDYWGQGTQVTVSS,low polyreactivity
6,QVQLVESGGGLVQGGGSLRLSCAASGFIFDDNSMGWYRQAPGKERELVAAITSGGGSTYYADSVKGRFTISRDNAKNTVYLQMNSLKPEDTAVYYCNAVPSQHDEFDYWGQGTQVTVSS,low polyreactivity
7,QVQLVESGGGLVQGGGSLRLSCAASGITFGDYAMGWYRQAPGKERELVAGINWSGDGTYYADSVKGRFTISRDNAQNTDYLQLNSLKPEDTAVYNCAAETFYDYGGYDYWGQGTQVTVSS,low polyreactivity
8,QVQLVESGGGLVQGGGSLRLSCAASGRNFKYNTMGWYRQAPGKERDLVAAISLSSGSGGGTRYADSVKGRFTISRDNAKNSVYLQMNSLKPEDSAVYYCAARHRYTNEYDYWGHGTQVTVSS,low polyreactivity
9,QVQLVESGGGLVQGGGSLRLSCAASGSIFTYNAIRSYRQAPGKERELVAAINTSGSTNYADSVKGRFTLSRDNAKNTVYLQMNSVKPEVTAVYYCAAGIVVTGYDYWGHGTQVTVSS,low polyreactivity
10,QVQLVESGGGLVQGGGSLSLSCAASGSNFWRYAMGWYRQAPGKEMELVAVISDRGCITYYADSVKGRFTISRDNAKNTVYLQMNSLKPEDTAVYYCNAVDSDRSDPSEYDYWGQGTQVTLSS,low polyreactivity
11,QVQLVESGGGLVQPGGSLRLSCAASGFIFLGYAMGWYRQAPGKERELVATITWRGGSTYYADSVKGRFTISRDNAKNTVYLQMNSLIPEDTADYYCAATRGWLHSFARDDHDYWGQGTQVTVSS,high polyreactivity
12,QVQLVESGGGLVQPGGSLRLSCAASGFIFSYYVMGWYRQAPGKERELVAAITTSGDSTYYADSVKGRFTISRDNAKNSVYLQMNSLKPEDTAVYYCNTVYRYRYYWGQGTHVTVSS,high polyreactivity
13,QVQLVESGGGLVQPGGSLRLSCAASGFTFYLYALGWYRQAPVKERELVASISSGGRTYYADSVKGRFTISRDNAKNTVYVQMNRLKPADTAVYYCAARRPAWYWSAYRYYSEMDYWGQGTQVTVSS,high polyreactivity
14,QVQLVESGGGLVQPGGSLRLSCAASGRIFYYYAMGWYRQAPGKERELVAAITWNGTSTYYADSVKGRFTISRDNAKNTVYLQMNSLKPEDTAVYYCAKSLRAYRHVIYGKPFYSWGQGTQVTVSS,low polyreactivity
15,QVQLVESGGGLVQPGGSLRLSCAASGSIFIVYAMGWYRQAPGQERELVAGISVRTGSTYYADSVKGRFTISRDNAKNTGYLQMNSLKPEDTAVYYCAAPGYTGLGRNYWGQGTQVTVSS,low polyreactivity
16,QVQLVESGGGLVQPGGSLRLSCAASGSIFPYYAKGWYRKAPGKERELVADITSSGGSTYYADSVMGRFTISRDNAKNTVYLQMNSLKPEDTAVYYCAADGAVVSSSRKFGYWGQGTQVTVSS,low polyreactivity
17,QVQLVESGGGLVQPGGSLRLSCAASGSIFTRNAMGWYRQAPGKERELVAAITKRGGSTYYADSVKGRFTISRDNAKNTVYLQMNSLKPEETAVYSCAADVYKYKHTQEYHVGRMDYWGQGTQVTVSS,low polyreactivity
18,QVQLVESGGGLVQPGGSLRLSCAASGSNFEPYAMGWYRQAPGKERELVAAISSGGSTNYADSVKGRFTISRDNAKNTVYLQMNSLKPEDTAVYFCAAAYYTVGWLFYDYWYPFAYYYWGQGTQVTVSS,low polyreactivity
19,QVQLVESGGGLVQPGGSLRLSCAASGSTFLVYAMGWYRQAPGKERELVAVIDNGGDTYYADSVKGRFTISRDNAKNTVYLPMNSMKPEDTEVYYCAADLSYLGYCEYDYWGQGTQVNVSS,low polyreactivity
20,QVQLVESGGGLVQPGGSLRLTCAAYGFIFGYNSMGWYSQAPGKERELVAAISSGGSTYYADSVNGLFTISRDNAKNTVYLQMNSVKPDDTAVYYCAVELGYPIQSDALWWDFEYWGQGTQVTVSS,low polyreactivity
21,QVQLVESGGGLVQPRGSLRLSCAASGSILGHYAMGWYRQAPGKERELVAAISWRGGTTYYADSVKGRFTISRDNAKNTVYLQMNSLKPEDTAVYYCNADVWVYPYDYWGQGTQVTVSS,low polyreactivity

# Source: the nanobody polyreactivity screen of Harvey et al. (2022)
